According to article PMC3999280:

Target: LdtRLas ('Candidatus Liberibacter asiaticus', UniProt A0ABN4AZS1 1-171)
Assay: competition
Settings: protein: recombinant; tags: N-terminal His6 removed by TEV; chain copies: 2; label: none; blunt

B1: CD-3 (dsDNA)
DNA 1: TCTTCTAATATTCCTTGTATTTTAATTATGTTCGAATTTTATTTT
DNA 2: AAAATAAAATTCGAACATAATTAAAATACAAGGAATATTAGAAGA
  binding result: binds
